Where a chain is given by its changes, count along the chain named. Names and notes keep the numbering of the source.
B1: MTSP-1 H40R/I41H/F97D/F99L/Q192G (enzyme)
chain: VVGGTDADEGEWPWQVSLHALGQGRHCGASLISPNWLVSAAHCYIDDRGFRYSDPTQWTAFLGLHDQSQRSAPGVQERRLKRIISHPFFNDDTLDYDIALLELEKPAEYSSMVRPICLPDASHVFPAGKAIWVTGWGHTQYGGTGALILQKGEIRVINQTTCENLLPQQITPRMMCVGFLSGGVDSCGGDSGGPLSSVEADGRIFQAGVVSWGDGCAQRNKPGVYTRLPLFRDWIKENTGV
B2: MTSP-1 H40R/I41H/F97D/F99L/C122S/G151D/Q175M/Q192G/D217V (enzyme)
chain: B1 chain with C117S, G145D, Q169M, D214V
B3: MTSP-1 H40R/I41H/Y60gH/F97D/F99L/C122S/Q175M/Q192G/D217I/K224L (enzyme)
chain: B1 chain with Y52H, C117S, Q169M, D214I, K221L
B4: MTSP-1 H40R/I41H/Y60gH/F97D/F99L/C122S/G151N/Q175A/Q192H/D217I/K224R (enzyme)
chain: B1 chain with Y52H, C117S, G145N, Q169A, G188H, D214I, K221R
B5: MTSP-1 H40R/I41H/F97D/F99L/C122S/Q175M/Q192G/D217S (enzyme)
chain: B1 chain with C117S, Q169M, D214S
B6: MTSP-1 H40R/I41H/Y60gF/F97D/F99L/C122S/Q175M/Q192G/D217W/K224R (enzyme)
chain: B1 chain with Y52F, C117S, Q169M, D214W, K221R
B7: MTSP-1 H40K/I41M/Y60gF/F97D/F99L/C122S/G151N/Q175L/Q192D (enzyme)
chain: B1 chain with R25K, H26M, Y52F, C117S, G145N, Q169L, G188D
B8: MTSP-1 H40R/I41H/F97D/F99L/C122S/Q175M/Q192G/D217V/K224Y (enzyme)
chain: B1 chain with C117S, Q169M, D214V, K221Y
B9: MTSP-1 H40R/I41H/Y60gL/F97D/F99L/C122S/G151N (enzyme)
chain: B1 chain with Y52L, C117S, G145N, G188Q
B10: MTSP-1 H40K/I41L/Y60gF/F97D/F99L/C122S/G151N/Q175R (enzyme)
chain: B1 chain with R25K, H26L, Y52F, C117S, G145N, Q169R, G188Q
B11: MTSP-1 H40R/I41H/Y60gF/F97D/F99L/C122S/Q192G/D217R/K224A (enzyme)
chain: B1 chain with Y52F, C117S, D214R, K221A
B12: MTSP-1 H40R/I41H/F97D/F99L/C122S/Q175L/Q192G/D217K/K224A (enzyme)
chain: B1 chain with C117S, Q169L, D214K, K221A
B13: MTSP-1 H40R/I41H/F97D/C122S/G151N/Q175M/Q192A/D217S/K224R (enzyme)
chain: B1 chain with L94F, C117S, G145N, Q169M, G188A, D214S, K221R
B14: MTSP-1 H40K/I41M/Y60gG/F97D/F99L/C122S/G151N/Q175R/Q192R/D217V/K224S (enzyme)
chain: B1 chain with R25K, H26M, Y52G, C117S, G145N, Q169R, G188R, D214V, K221S
B15: MTSP-1 H40R/I41H/Y60gN/F97D/F99L/C122S/G151N/Q175K/Q192S/D217S/K224L (enzyme)
chain: B1 chain with Y52N, C117S, G145N, Q169K, G188S, D214S, K221L
B16: MTSP-1 H40R/I41H/Y60gF/F97D/F99L/C122S/Q192G/D217M/K224R (enzyme)
chain: B1 chain with Y52F, C117S, D214M, K221R
B17: MTSP-1 H40R/I41H/F97D/F99L/C122S/Q175K/Q192G/D217I/K224H (enzyme)
chain: B1 chain with C117S, Q169K, D214I, K221H
B18: MTSP-1 H40R/I41H/Y60gH/F97D/F99L/C122S/Q175M/Q192G/D217I/K224R (enzyme)
chain: B1 chain with Y52H, C117S, Q169M, D214I, K221R
B19: MTSP-1 F97T/ins97aE/T98G/F99L/C122S/Q175L/Q192E (enzyme)
chain: VVGGTDADEGEWPWQVSLHALGQGHICGASLISPNWLVSAAHCYIDDRGFRYSDPTQWTAFLGLHDQSQRSAPGVQERRLKRIISHPFFNDTEGLDYDIALLELEKPAEYSSMVRPISLPDASHVFPAGKAIWVTGWGHTQYGGTGALILQKGEIRVINQTTCENLLPQLITPRMMCVGFLSGGVDSCEGDSGGPLSSVEADGRIFQAGVVSWGDGCAQRNKPGVYTRLPLFRDWIKENTGV
B20: Q38H/I41A/D60bV/F60eR/Y60gW/D96P/ins97aN/F97W/T98G/F99L/C122S/G151H/Q175L/Q192E (enzyme)
chain: B19 chain with Q23H, I26A, D47V, F50R, Y52W, D91P, T92W, E93N, G146H
B21: Q38H/I41S/D60bF/F60eV/F97D/ins97aV/T98P/F99L/C122S/G151N/Q175L/Q192A (enzyme)
chain: B19 chain with Q23H, I26S, D47F, F50V, T92D, E93V, G94P, G146N, E189A
B22: Q38F/I41A/D60bT/F60eG/Y60gW/ins97aE/F97T/T98G/F99L/C122S/Q175L/Q192E (enzyme)
chain: B19 chain with Q23F, I26A, D47T, F50G, Y52W
B23: Q38H/I41A/D60bV/F60eA/Y60gW/F97T/ins97aE/T98G/F99L/C122S/Q175L/Q192V (enzyme)
chain: B19 chain with Q23H, I26A, D47V, F50A, Y52W, E189V
B24: Q38H/I41A/D60bV/F60eT/Y60gW/ins97aE/F97T/T98G/F99L/C122S/Q175L/Q192E (enzyme)
chain: B19 chain with Q23H, I26A, D47V, F50T, Y52W
B25: Q38H/I41A/D60bV/F60eR/Y60gW/D96P/ins97aN/F97W/T98G/F99L/C122S/G151N/Q175L/Q192E (enzyme)
chain: B19 chain with Q23H, I26A, D47V, F50R, Y52W, D91P, T92W, E93N, G146N
B26: Q38H/I41A/D60bV/F60eR/Y60gW/ins97aE/F97T/T98G/F99L/C122S/Q175L/Q192D (enzyme)
chain: B19 chain with Q23H, I26A, D47V, F50R, Y52W, E189D
B27: Q38H/I41S/D60bT/F60eS/Y60gW/ins97aV/F97D/T98P/F99L/C122S/G151H/Q175L (enzyme)
chain: B19 chain with Q23H, I26S, D47T, F50S, Y52W, T92D, E93V, G94P, G146H, E189Q
B28: Q38H/I41S/D60bT/F60eS/Y60gW/D96K/F97G/ins97aV/T98P/F99L/C122S/G151H/Q175L (enzyme)
chain: VVGGTDADEGEWPWQVSLHALGHGHSCGASLISPNWLVSAAHCYIDTRGSRWSDPTQWTAFLGLHDQSQRSAPGVQERRLKRIISHPFFNKGVPLDYDIALLELEKPAEYSSMVRPISLPDASHVFPAGKAIWVTGWGHTQYGGTHALILQKGEIRVINQTTCENLLPQLITPRMMCVGFLSGGVDSCQGDSGGPLSSVEADGRIFQAGVVSWGDGCAQRNKPGVYTRLPLFRDWIKENTGV
B29: Q38H/I41S/D60bT/F60eS/Y60gW/D96L/ins97aG/F97D/T98N/F99L/C122S/G151H/Q175L/Q192E (enzyme)
chain: B28 chain with K91L, G92D, V93G, P94N, Q189E
B30: Q38H/I41A/D60bV/F60eR/Y60gW/D96I/ins97aN/F97Y/T98G/F99L/C122S/G151H/Q175L/Q192D (enzyme)
chain: B28 chain with S26A, T47V, S50R, K91I, G92Y, V93N, P94G, Q189D
B31: Q38H/I41A/D60bT/F60eH/Y60gW/ins97aE/F97T/T98G/F99L/C122S/Q175L/Q192D (enzyme)
chain: B19 chain with Q23H, I26A, D47T, F50H, Y52W, E189D
B32: Q38H/I41A/D60bV/F60eR/Y60gW/D96P/ins97aN/F97W/T98G/F99L/C122S/G151H/Q175L/Q192D (enzyme)
chain: B28 chain with S26A, T47V, S50R, K91P, G92W, V93N, P94G, Q189D
B33: Q38H/I41S/D60bT/F60eS/Y60gW/D96F/F97D/ins97aE/T98S/F99L/C122S/G151H/Q175L/Q192A (enzyme)
chain: B28 chain with K91F, G92D, V93E, P94S, Q189A
B34: Q38H/I41S/D60bT/F60eS/Y60gW/D96K/F97G/ins97aA/T98P/F99L/C122S/G151H/Q175L/Q192D (enzyme)
chain: B28 chain with V93A, Q189D
B35: Q38F/I41S/D60bF/F60eR/Y60gF/F97T/ins97aE/T98G/F99L/C122S/G151N/Q175L/Q192V (enzyme)
chain: B19 chain with Q23F, I26S, D47F, F50R, Y52F, G146N, E189V
B36: Q38H/I41A/D60bV/F60eR/Y60gW/D96I/ins97aN/F97Y/T98G/F99L/C122S/G151N/Q175L/Q192D (enzyme)
chain: B28 chain with S26A, T47V, S50R, K91I, G92Y, V93N, P94G, H146N, Q189D
B37: Q38H/I41A/D60bV/F60eR/Y60gW/D96S/ins97aR/F97A/T98S/F99L/C122S/G151N/Q175L/Q192T (enzyme)
chain: B28 chain with S26A, T47V, S50R, K91S, G92A, V93R, P94S, H146N, Q189T
B38: Q38G/H40R/I41H/D60bN/F97D/F99L/C122S/Q175L/Q192G (enzyme)
chain: B1 chain with Q23G, D47N, C117S, Q169L
B39: Q38Y/I41A/D60bL/F60eQ/ins97aV/F97D/T98P/F99L/C122S/G151N/Q175M/Q192A (enzyme)
chain: B28 chain with H23Y, S26A, T47L, S50Q, W52Y, K91D, G92D, H146N, L170M, Q189A
B40: Q38Y/I41S/D60bT/F60eR/Y60gW/D96M/F97N/T98G/F99L/C122S/G151N/Q175L (enzyme)
chain: VVGGTDADEGEWPWQVSLHALGYGHSCGASLISPNWLVSAAHCYIDTRGRRWSDPTQWTAFLGLHDQSQRSAPGVQERRLKRIISHPFFNMNGLDYDIALLELEKPAEYSSMVRPISLPDASHVFPAGKAIWVTGWGHTQYGGTNALILQKGEIRVINQTTCENLLPQLITPRMMCVGFLSGGVDSCQGDSGGPLSSVEADGRIFQAGVVSWGDGCAQRNKPGVYTRLPLFRDWIKENTGV
B41: Q38H/I41S/D60bY/D96Y/ins97aV/F97D/T98P/F99L/L106M/C122S/I136M/Q192G/Q209L/D217T (enzyme)
chain: VVGGTDADEGEWPWQVSLHALGHGHSCGASLISPNWLVSAAHCYIDYRGFRYSDPTQWTAFLGLHDQSQRSAPGVQERRLKRIISHPFFNYDVPLDYDIALMELEKPAEYSSMVRPISLPDASHVFPAGKAMWVTGWGHTQYGGTGALILQKGEIRVINQTTCENLLPQQITPRMMCVGFLSGGVDSCGGDSGGPLSSVEADGRIFLAGVVSWGTGCAQRNKPGVYTRLPLFRDWIKENTGV
B42: ins97aA/F97G/T98L/C122S/Q175M/Q192A/D217I/K224R (enzyme)
chain: B19 chain with T92G, E93A, G94L, L95F, L170M, E189A, D215I, K222R
B43: ins97aY/F97G/T98V/C122S/Q175M/Q192S/D217V (enzyme)
chain: B19 chain with T92G, E93Y, G94V, L95F, L170M, E189S, D215V

What follows are binders tested against plasma purified human complement protein C3 (human) (UniProt P01024) (assay: cell-based or functional assay).
Chain of plasma purified human complement protein C3 (human) (P01024 23-667, chain 1 of 2): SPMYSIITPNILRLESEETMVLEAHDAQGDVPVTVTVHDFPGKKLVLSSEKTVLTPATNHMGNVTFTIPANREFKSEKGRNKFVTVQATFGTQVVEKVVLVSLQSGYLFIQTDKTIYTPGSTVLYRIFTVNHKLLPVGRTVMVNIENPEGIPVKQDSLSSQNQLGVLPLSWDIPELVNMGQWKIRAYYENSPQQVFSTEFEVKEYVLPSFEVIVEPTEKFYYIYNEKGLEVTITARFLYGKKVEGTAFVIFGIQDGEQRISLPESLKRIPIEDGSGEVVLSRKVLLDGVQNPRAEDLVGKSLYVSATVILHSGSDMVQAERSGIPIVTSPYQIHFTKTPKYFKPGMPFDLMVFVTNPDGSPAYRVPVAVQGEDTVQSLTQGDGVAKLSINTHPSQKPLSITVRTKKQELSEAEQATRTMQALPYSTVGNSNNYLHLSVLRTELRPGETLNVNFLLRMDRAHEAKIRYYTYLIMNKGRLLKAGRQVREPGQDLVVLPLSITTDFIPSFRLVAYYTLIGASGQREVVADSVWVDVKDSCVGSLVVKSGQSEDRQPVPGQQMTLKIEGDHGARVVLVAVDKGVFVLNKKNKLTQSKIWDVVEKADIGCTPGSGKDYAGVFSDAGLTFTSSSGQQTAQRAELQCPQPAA
Chain of plasma purified human complement protein C3 (human) (P01024 672-1663, chain 2 of 2): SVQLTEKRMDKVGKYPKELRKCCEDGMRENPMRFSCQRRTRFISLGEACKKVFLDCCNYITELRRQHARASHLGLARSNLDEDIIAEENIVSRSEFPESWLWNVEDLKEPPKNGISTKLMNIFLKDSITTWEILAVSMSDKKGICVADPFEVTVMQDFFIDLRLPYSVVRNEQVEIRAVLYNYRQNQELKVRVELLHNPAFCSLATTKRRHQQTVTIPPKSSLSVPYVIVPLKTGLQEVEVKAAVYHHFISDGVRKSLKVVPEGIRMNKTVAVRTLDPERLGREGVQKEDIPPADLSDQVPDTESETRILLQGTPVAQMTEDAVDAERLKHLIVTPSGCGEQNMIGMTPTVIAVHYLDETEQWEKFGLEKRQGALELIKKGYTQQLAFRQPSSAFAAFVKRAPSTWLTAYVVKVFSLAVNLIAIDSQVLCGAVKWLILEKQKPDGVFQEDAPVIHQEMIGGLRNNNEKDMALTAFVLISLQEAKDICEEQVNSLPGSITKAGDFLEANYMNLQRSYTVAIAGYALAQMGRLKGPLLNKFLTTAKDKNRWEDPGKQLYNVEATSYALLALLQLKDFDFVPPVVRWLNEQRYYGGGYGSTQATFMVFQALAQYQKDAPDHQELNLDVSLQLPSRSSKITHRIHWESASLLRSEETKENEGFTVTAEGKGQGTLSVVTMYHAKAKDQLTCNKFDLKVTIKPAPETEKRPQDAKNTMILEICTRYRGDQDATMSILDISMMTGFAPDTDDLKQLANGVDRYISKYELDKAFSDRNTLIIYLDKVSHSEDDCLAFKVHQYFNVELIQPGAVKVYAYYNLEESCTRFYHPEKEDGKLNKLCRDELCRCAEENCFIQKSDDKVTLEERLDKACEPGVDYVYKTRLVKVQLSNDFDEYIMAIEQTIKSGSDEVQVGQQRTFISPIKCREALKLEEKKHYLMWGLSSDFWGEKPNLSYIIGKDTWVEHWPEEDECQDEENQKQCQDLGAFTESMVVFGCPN

| EC50 of hC3 cleavage | Binder |
| --- | --- |
| 24.1 nM | B1 |
| 70.8 nM | B2 |
| 3.72 nM | B3 |
| 19.8 nM | B4 |
| 24.4 nM | B5 |
| 9.92 nM | B6 |
| 589 nM | B7 |
| 2.76 nM | B8 |
| 54.9 nM | B9 |
| 237 nM | B10 |
| 25.9 nM | B11 |
| 14.1 nM | B12 |
| 470 nM | B13 |
| 509 nM | B14 |
| 187 nM | B15 |
| 38 nM | B16 |
| 19.4 nM | B17 |
| 7.94 nM | B18 |
| 259 nM | B19 |

Each binder was assayed against human complement protein C3 (human) (UniProt P01024) (assay: cell-based or functional assay).
Chain of human complement protein C3 (human) (P01024 23-667, chain 1 of 2): as the sequence (P01024 23-667, chain 1 of 2) above
Chain of human complement protein C3 (human) (P01024 672-1663, chain 2 of 2): as the sequence (P01024 672-1663, chain 2 of 2) above

| EC50 (nM), cleavage of purified hC3 in vitro | Binder |
| --- | --- |
| 1.11 nM | B20 |
| 1.57 nM | B21 |
| 1.25 nM | B22 |
| 1.57 nM | B23 |
| 1.39 nM | B24 |
| 1.51 nM | B25 |
| 2.37 nM | B26 |
| 1.31 nM | B27 |
| 1.45 nM | B28 |
| 1.59 nM | B29 |
| 1.57 nM | B30 |
| 2.28 nM | B31 |
| 1.83 nM | B32 |
| 1.17 nM | B33 |
| 1.43 nM | B34 |
| 1.96 nM | B35 |
| 2.23 nM | B36 |
| 2.07 nM | B37 |
| 0.867 nM | B38 |
| 1.53 nM | B39 |
| 1.08 nM | B40 |
| 1.97 nM | B41 |
| 0.866 nM | B42 |
| 2.42 nM | B43 |
